Assays:
[1] = target: extracellular domain of the human β-klotho protein (human) (UniProt Q86Z14); assay: BLI
[2] = target: GLP-1 receptor (UniProt P43220)
[3] = target: GLP-1 receptor (UniProt P43220); remark: listed apart in the source
[4] = target: extracellular domain of the human β-klotho protein (human) (UniProt Q86Z14)
[5] = target: extracellular domain of the human β-klotho protein (human) (UniProt Q86Z14); remark: listed apart in the source

Sequence of extracellular domain of the human β-klotho protein (human) (Q86Z14 1-996): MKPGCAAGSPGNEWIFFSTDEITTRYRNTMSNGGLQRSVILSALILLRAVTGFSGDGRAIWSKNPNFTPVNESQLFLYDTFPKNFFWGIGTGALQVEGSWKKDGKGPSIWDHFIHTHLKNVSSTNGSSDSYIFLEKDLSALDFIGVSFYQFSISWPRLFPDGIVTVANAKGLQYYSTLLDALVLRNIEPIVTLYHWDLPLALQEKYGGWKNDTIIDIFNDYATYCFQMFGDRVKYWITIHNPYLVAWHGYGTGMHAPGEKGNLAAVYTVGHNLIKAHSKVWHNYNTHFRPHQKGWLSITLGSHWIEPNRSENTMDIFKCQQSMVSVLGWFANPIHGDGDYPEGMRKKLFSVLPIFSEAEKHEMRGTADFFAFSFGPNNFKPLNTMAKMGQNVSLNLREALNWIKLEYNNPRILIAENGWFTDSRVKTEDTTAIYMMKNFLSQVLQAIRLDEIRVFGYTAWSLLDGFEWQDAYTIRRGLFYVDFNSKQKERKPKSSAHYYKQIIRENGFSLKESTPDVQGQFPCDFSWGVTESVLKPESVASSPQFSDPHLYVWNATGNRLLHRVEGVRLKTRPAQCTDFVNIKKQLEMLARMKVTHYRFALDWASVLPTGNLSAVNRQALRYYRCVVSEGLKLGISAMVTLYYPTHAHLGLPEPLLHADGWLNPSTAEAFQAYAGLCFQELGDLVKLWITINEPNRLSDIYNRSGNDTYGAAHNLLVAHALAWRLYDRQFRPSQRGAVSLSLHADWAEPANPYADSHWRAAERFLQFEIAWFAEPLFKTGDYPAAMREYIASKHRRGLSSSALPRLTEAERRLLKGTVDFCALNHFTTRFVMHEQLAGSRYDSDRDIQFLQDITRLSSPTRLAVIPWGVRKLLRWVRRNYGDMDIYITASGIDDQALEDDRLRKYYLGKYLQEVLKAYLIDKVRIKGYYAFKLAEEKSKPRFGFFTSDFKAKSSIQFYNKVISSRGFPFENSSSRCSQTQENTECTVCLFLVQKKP
Sequence of GLP-1 receptor (P43220 24-463): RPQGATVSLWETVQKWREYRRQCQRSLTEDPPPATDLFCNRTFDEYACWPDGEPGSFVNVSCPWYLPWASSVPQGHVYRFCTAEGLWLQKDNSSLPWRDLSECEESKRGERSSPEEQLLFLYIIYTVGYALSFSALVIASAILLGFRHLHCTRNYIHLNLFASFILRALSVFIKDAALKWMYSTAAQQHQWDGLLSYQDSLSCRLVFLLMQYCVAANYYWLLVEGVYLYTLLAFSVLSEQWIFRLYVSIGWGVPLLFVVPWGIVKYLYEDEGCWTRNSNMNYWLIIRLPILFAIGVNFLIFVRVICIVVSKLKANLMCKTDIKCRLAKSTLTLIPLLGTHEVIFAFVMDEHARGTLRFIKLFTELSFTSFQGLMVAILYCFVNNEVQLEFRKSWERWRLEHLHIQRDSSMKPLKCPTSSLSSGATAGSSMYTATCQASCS

Substance | Kd [1] | EC50 of cAMP in HEK293 cells expressing both GLP-1R and β-Klotho (Fig. 2c) [2] | EC50 of cAMP production in HEK293 cells expressing GLP-1R alone (Fig. 2b) [3] | EC50 of cAMP in HEK293 cells expressing both GLP-1R and β-Klotho (Fig. 2c) [4] | EC50 of ERK1/2 phosphorylation in HEK293 cells expressing β-Klotho (Fig. 2a) [5]
Fc-FGF21 (L98R, S167H, P171A) (Fc fusion) | 0.59 nM | – | – | – | –
Fc-FGF21 (L98R, P171A) (Fc fusion) | 0.767 nM | – | – | – | –
Dulaglutide (Fc fusion) | – | 0.21 nM | 0.06 nM | – | –

The next lines start with the values.

Kd [1] | EC50 of cAMP in HEK293 cells expressing both GLP-1R and β-Klotho (Fig. 2c) [2] | EC50 of cAMP production in HEK293 cells expressing GLP-1R alone (Fig. 2b) [3] | EC50 of cAMP in HEK293 cells expressing both GLP-1R and β-Klotho (Fig. 2c) [4] | EC50 of ERK1/2 phosphorylation in HEK293 cells expressing β-Klotho (Fig. 2a) [5] | Substance
0.24 nM | – | – | – | – | GLP-1-Fc-FGF21 (L98R, S167H, P171A) (Fc fusion)
0.316 nM | – | – | 305 nM | 1.13 nM | Fc-FGF21 (L98R, S167H, P171A, R175L) (Fc fusion)
0.0924 nM | – | 0.15 nM | – | 1.52 nM | GLP-1-Fc-FGF21 (L98R, S167H, P171A, R175L) (Fc fusion)
